Measurements: the RNAGym collection of RNA variant scans (doi:10.1073/pnas.2313332121)

B1: TPR t1 (parent)
chain: GACCAAUCUGCCCUCAGAGCUCGAGAACAUCUUCGGAUGCAGAGGAGGCAGGCUUCGGUGGCGCGAUAGCGCCAACGUCCUCAACCUCCAAUGCAUCCCACCACAUGAUGAUGCCUGAAGAGCCUUGGUUUUUUG

Variants of: B1
Assay: polymerase ribozyme fitness, log enrichment relative to wild type (log ratio); higher = more active; in vitro selection for triplet polymerase activity
Method in brief: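 A heterodimeric triplet polymerase ribozyme had each of its subunits mutagenized by PCR into a library, which was transcribed. One round of in vitro selection, done in triplicate, annealed each library with a biotinylated primer, its partner subunit and triplets, then incubated it frozen at −7 °C before gel excision of extended constructs, streptavidin-bead capture and RT-PCR. Fitness is the logarithm of genotype enrichment relative to wild-type enrichment, based on Illumina sequencing of inputs and outputs and inverse-variance-weighted replicate averages. A base-2 logarithm is used, and genotypes were kept only with ≥10 input reads and ≥1 read per output.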

In order of rising “polymerase ribozyme fitness (log ratio)” value:
1. C40A C80G U109A U133A  -7.59
2. C28A A74C G117U  -7.34
3. C79A C99G G120U  -7.33
4. G35U U54C C64G C76G C85U G113U  -7.14
5. C13G G47A C72U G110C  -7.11
6. G10A G42U C49A C70G C98A U112G U130G  -6.93
7. C11G G71A C80G G128A  -6.67
8. C31G G42C A111U  -6.49
9. C34G A95G U109G G117C  -6.44
10. C20U G25C C64A C70U C98G A111U  -6.27
11. A2G C15U A43U G45U C56U C62U  -6.15
12. G23A G63C C101U A111G  -6.12
13. G35U U59A  -6.05
14. C20G A24G G45C C73A C88A C115U  -5.98
15. A26U C53A G61C U78A G110A  -5.96
16. A6C A43G G63U G69A G117C  -5.96
17. U7G C15G C88G U96A A108G C124A  -5.93
18. C20A C97A  -5.7
19. C8U U9C C12U G17A G19A G44U C114G  -5.67
20. C34U G117A  -5.61
21. A27U G36A A41C C56A G61A G120A  -5.6
22. G42C U109A  -5.54
23. G25A C72A  -5.51
24. C56U G63C C94U  -5.48
25. C20A G65A C94G A105G G110A U125G G128U  -5.13
26. G19A G60A C101A U106A A119U C123U  -5
27. G60U A103U  -4.99
28. C72A U81A C86U U106A G128A U130A  -4.98
29. A2G C11U C22G C62U U130A  -4.9
30. C22U G61C  -4.87
31. C11U U32C C97G  -4.82
32. C8G A68G G71U A108G  -4.73
33. G10A G71C U81A A100C  -4.69
34. C28U G39U G71C C99U G120A  -4.64
35. C11A C22G G48A C72G A119G  -4.64
36. G17A U129A  -4.6
37. C22G C98U  -4.52
38. A74C C102G U112C  -4.5
39. A16U G45C C53G A90G G113A A121C  -4.47
40. G52U U92A C104U  -4.43
41. G45U G51U C62U U78C C80G  -4.39
42. C28A C72U A100C G120A  -4.36
43. C40G G45A U78C G113U G135A  -4.25
44. U33A C97A C123G  -4.21
45. C22A A27C C124A  -4.12
46. A46U G71A G93A G120A G122A  -3.97
47. U32A G58C C94U  -3.96
48. A6U G107U  -3.94
49. A24G G36C C49A G71U  -3.84
50. A43G C56A G57U U59C A84C C86U  -3.81
51. C80A G135U  -3.76
52. A105C G128C  -3.71
53. C64A C123G  -3.71
54. G42A U126G  -3.7
55. G47C G93U  -3.69
56. C12G G52A G61C C88U G120U  -3.61
57. C12U C34U G61A C104U U132A U133G  -3.5
58. C62A G110A U126G  -3.4
59. C70U U81A U116G  -3.38
60. C70U A91U  -3.34
61. C20A G60C  -3.33
62. A43U A74U C104U C115U  -3.23
63. C28U C53G G58C G60C  -3.2
64. U9A G10C U54A C86A G110U U125A  -3.13
65. G42C G128A  -3.12
66. A2G U38G G42U C115U  -3.06
67. C3U G60A U92A  -3.06
68. G61A U116G  -3.01
69. C3U C13U C15U G48U G113A  -2.97
70. U55A A66G C101G  -2.92
71. C12A C72G A91C U96A  -2.9
72. A46C U78C C101G  -2.77
73. U9A A50U C62G  -2.77
74. A5C G44C A46U U106C  -2.77
75. C4G A5U C76U  -2.75
76. A16U C40A U54C G60A  -2.69
77. A83G C85A  -2.68
78. A41G G71U A91U  -2.66
79. A5G A46U C56U C73G  -2.61
80. A6C C72U A105C U131C  -2.59
81. U96A G110A  -2.45
82. C72A A91G U92G G113C  -2.41
83. C11G C114G  -2.38
84. C28U A37U  -2.36
85. C11U G117A  -2.36
86. C40G C104A  -2.31
87. A105U G120U C123U  -2.19
88. G36A G52C  -2.17
89. U7A G45A G58A U59C  -2.17
90. G19A A37C G61U G120C  -2.13
91. C3G C70U  -2.07
92. C12A C70A  -2.05
93. C56U G113U C123G  -2.01
94. A18C G42U A46G G47A C86U  -2
95. A43C G60U U133G  -2
96. A16U G45A C70U A118U  -2
97. C20U C101U  -1.97
98. C8G C62U U106A G113U  -1.94
99. C8G A46U G52U C56A C82U C101A  -1.86
100. C8U U55G G77U G113C  -1.83
101. C70U G128U  -1.82
102. G42A U59A  -1.76
103. A46U C49G  -1.75
104. A68G A83C U96G U106A A121C  -1.7
105. C53G G63U G122A  -1.7
106. C72U C114A  -1.67
107. C8U C85A A91U  -1.64
108. A41G G57A C64U U130A  -1.6
109. G10A C53A C72U C79A U96G  -1.55
110. C56G C70U C88U U106A U133A  -1.55
111. A37U G60U  -1.39
112. A50C C72U U81G C85A  -1.34
113. A83C G117A  -1.33
114. C70U A100U  -1.33
115. G39A G48A C88A  -1.33
116. A41G C101A  -1.25
117. U38G A83C  -1.25
118. G60C G135U  -1.23
119. G42C C53G  -1.2
120. C4G G120C  -1.15
121. C3U G48A G60C G113A  -1.14
122. G48A G63C U132A  -1.12
123. C3U G47U C53G U96G C104U A118G C124U  -1.09
124. A50U G60C  -1.06
125. A37U C40U U87G  -1.01
126. C62A C79U C82A A111C  -0.967
127. C11G G44A U125G  -0.96
128. C82G U125A  -0.86
129. U7G A27G G48C  -0.78
130. C76G U130A  -0.718
131. U87A U130A  -0.662
132. C8A G61C G122A  -0.605
133. A37G C62U  -0.523
134. A50C U87A  -0.514
135. C12U C73A U96A C104U  -0.414
136. G57C U106A  -0.376
137. U54G  -0.214
138. U55G C62A  -0.186
139. C11A C12U  -0.179
140. A2C C8A C72U C123U  -0.16
141. C13U C72G  -0.128
142. C13U U106A  -0.0681
143. C62U C104U  0.0133
144. G48C U106A  0.0361
145. G61A U130A  0.0628
146. C115A U133A  0.127
147. C72G C86U  0.195
148. U9C G69U U130G  0.198
149. C114A A119G C124G  0.223
150. U9C A16U G63C  0.269
151. U9A C53A C86U  0.27
152. U78C C88U  0.285
153. C8A A50G A95C  0.286
154. G48A U112C  0.294
155. G48U G58U G60U C82G C123U  0.461
156. G48C C115A A121U  0.474
157. G60U A111G  0.488
158. C11A G120A  0.576
159. C72U A111C  0.581
160. C12U G36C A46U U112C G127U  0.627
161. U59G C86U  0.709
162. U112A C123U  1.03
163. U7C G71U U112A U133A  1.1
164. G69U C94U G120A  1.2
165. G58U C124A  1.26
166. G36C C76A C79U A121U  1.44
167. G122A C124G  1.86
